From article PMC7990223

Columns and labels:
[1] = biological target: mouse ACE2 (mouse) (UniProt Q8R0I0); test: flow cytometry on cells
[2] = biological target: human ACE2 (human) (UniProt Q9BYF1); test: flow cytometry on cells
Chain of human ACE2 (human) (Q9BYF1 18-805): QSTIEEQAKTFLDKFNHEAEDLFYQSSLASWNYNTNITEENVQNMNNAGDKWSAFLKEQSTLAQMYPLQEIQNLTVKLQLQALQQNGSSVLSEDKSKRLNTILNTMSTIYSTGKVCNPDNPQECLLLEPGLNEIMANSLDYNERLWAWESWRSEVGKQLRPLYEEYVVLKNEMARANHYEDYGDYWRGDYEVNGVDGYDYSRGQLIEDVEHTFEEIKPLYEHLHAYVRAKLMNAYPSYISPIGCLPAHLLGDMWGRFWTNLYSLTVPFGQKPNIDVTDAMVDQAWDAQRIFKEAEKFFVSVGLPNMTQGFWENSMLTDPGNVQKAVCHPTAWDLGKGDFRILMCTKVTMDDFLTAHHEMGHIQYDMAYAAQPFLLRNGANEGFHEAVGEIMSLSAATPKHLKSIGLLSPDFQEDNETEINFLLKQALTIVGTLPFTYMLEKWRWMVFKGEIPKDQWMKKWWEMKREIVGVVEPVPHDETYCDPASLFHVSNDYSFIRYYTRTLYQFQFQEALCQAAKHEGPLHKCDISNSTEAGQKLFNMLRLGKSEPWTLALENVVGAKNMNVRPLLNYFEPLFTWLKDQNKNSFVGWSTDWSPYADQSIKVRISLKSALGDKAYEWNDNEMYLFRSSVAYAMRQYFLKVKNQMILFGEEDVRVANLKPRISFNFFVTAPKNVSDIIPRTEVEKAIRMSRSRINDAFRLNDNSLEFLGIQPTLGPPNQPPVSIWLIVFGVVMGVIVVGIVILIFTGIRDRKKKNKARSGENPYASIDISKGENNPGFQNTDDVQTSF

Chain of mouse ACE2 (mouse) (Q8R0I0 18-805): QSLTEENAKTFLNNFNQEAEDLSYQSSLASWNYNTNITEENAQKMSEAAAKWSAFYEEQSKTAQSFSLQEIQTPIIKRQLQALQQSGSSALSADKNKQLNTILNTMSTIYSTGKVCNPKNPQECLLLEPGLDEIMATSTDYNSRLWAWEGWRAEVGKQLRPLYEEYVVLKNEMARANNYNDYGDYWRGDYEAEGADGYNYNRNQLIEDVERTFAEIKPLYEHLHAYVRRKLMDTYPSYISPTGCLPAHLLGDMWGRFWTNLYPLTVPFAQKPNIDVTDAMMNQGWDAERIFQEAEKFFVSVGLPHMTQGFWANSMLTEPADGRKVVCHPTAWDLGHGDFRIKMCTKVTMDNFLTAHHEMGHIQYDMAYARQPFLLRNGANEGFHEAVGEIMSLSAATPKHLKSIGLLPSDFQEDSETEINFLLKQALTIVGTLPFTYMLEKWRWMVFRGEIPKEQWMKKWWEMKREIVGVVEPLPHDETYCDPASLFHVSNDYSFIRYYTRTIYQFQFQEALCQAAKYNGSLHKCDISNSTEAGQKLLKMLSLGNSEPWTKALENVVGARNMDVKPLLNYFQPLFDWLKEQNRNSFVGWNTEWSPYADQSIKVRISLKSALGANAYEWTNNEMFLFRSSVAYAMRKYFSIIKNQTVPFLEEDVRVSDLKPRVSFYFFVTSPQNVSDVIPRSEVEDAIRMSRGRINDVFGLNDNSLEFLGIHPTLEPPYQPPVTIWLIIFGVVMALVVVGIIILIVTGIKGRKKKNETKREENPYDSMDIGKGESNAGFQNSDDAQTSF

S1 domain of the SARS-CoV spike protein C-terminally fused with Fc (from UniProt P59594 14-667) (Fc fusion)
percent of ACE2-expressing (zsGreen1+) cells positive for S1-Fc [1]: 40.4%
percent of ACE2-expressing (zsGreen1+) cells positive for S1-Fc [2]: 64%
